Laboratory results taken from article PMC10605006, “RNA structure and multiple weak interactions balance the interplay between RNA binding and phase separation of SARS-CoV-2 nucleocapsid”.

What was measured:
NTD = NTD (SARS-CoV-2, UniProt P0DTC9 47-174); experiment: fluorescence anisotropy; 1:1 fit; Anisotropy: 50 mM Na phosphate pH 6.5, 150 mM NaCl, 1 mM NaN3, 50 nM RNA; EMSA: 20 mM Tris pH 7.5, 150 mM NaCl, 1 mM DTT, room temp, 25 uM RNA; NTD NMR: 20 mM Na phosphate pH 6.5, 20 mM NaCl, 25 C; CTD NMR: 20 mM Na phosphate pH 6, 200 mM NaCl; details: protein: recombinant; tags: none (tag removed by bdSENP1); label: 5',6-carboxyfluorescein (6-FAM) for anisotropy; unlabeled for NMR; single strand, no self-pairing
[1] = biological target: FL-N (nucleocapsid, full length) (SARS-CoV-2, UniProt P0DTC9 1-419); experiment: fluorescence anisotropy; fit with locked stoichiometry n=4 RNA:FL-N; authors call it an estimate; Anisotropy: 50 mM Na phosphate pH 6.5, 150 mM NaCl, 1 mM NaN3, 50 nM RNA; EMSA: 20 mM Tris pH 7.5, 150 mM NaCl, 1 mM DTT, room temp, 25 uM RNA; NTD NMR: 20 mM Na phosphate pH 6.5, 20 mM NaCl, 25 C; CTD NMR: 20 mM Na phosphate pH 6, 200 mM NaCl; details: protein: recombinant; tags: His-tag (TALON, imidazole eluted); chain copies: 2; label: 5',6-carboxyfluorescein (6-FAM) for anisotropy; unlabeled for NMR; single strand, no self-pairing

GGCACAUGGACGUC (ssRNA) [ss-14mer]
Kd (NTD): 22 µM
Kd [1]: ~0.08 µM
